Values quoted from earlier work, collected in article PMC8330535.
pKd: −log10 of the molar value.

Molecular target: ARNT PAS-B (Homo sapiens) (UniProt P27540)
Conditions: cited from earlier work

Chain of HIF-1α PAS-B (Q16665 238-349): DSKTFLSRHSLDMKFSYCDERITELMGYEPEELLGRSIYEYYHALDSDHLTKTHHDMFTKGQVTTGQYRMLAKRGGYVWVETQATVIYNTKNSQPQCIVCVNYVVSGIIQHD
Chain of ARNT PAS-B (Homo sapiens) (P27540 356-470): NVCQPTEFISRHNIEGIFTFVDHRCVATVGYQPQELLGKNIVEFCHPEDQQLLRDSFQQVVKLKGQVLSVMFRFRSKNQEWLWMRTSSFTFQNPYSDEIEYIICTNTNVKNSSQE

HIF-1α PAS-B (from UniProt Q16665)
pKd: 6.90
